From patent US20250090676A1 (SUTRO BIOPHARMA, published 2025)

B1: SRP1848-D03 (antibody, V domains shown)
VH: EVQLVESGGGVVQPGGSLRLSCAASGFNIRYFSIHWVRQAPGKGLEWVGDIFPNDGSTDYADSVKGRFTISADTSKNTAYLQMNSLRAEETAVYYCARGHWSWPSGYWYYLDYWGQGTLVTVSS
VL: not shown
notes: HC variant paired with trastuzumab LC, cell-free expressed, HIS- and FLAG-tagged; also called Antibody 25
B2: SRP1848-G03 (antibody, V domains shown)
VH: EVQLVESGGGLVQPGGSLRLSCAASGFNISTYYIHWVRQAPGKGLEWVGGITPSDGFTDYADSVKGRSTISADTSKNTAYLQMNSLRAEDTAVYYCARGSWSWPSGHGYFLDYWGQGTLVTVSS
VL: not shown
notes: HC variant paired with trastuzumab LC, cell-free expressed, HIS- and FLAG-tagged; also called Antibody 48
B3: SRP1848-E03 (antibody, V domains shown)
VH: EVQLVESGGGLAQPGGSLRLSCAASGFNIGNYYIHWVRQAPGKGLEWVGGITPRDGFTDYADSVKGRFTISADTSKNTAYLQVNSLRAEDTAVYYCARGSWSWPAGHSYYLDYWGQGTLVTVSS
VL: not shown
notes: HC variant paired with trastuzumab LC, cell-free expressed, HIS- and FLAG-tagged; also called Antibody 33
B4: SRP1848-H01 (antibody, V domains shown)
VH: EVQLVESGGGLVQPGGSLRLSCAASGFNIRTQSIHWVRQAPGKGLEWIGDIFPIDGITDYADSVKGRFTISADTSKNTAYLQMNSLRAEDTAVYYCARGSWSWPSGMDYYLDYWGQGTLVTVSS
VL: not shown
notes: HC variant paired with trastuzumab LC, cell-free expressed, HIS- and FLAG-tagged; also called Antibody 55
B5: SRP1848-G04 (antibody, V domains shown)
VH: EVQLVESGGGLVQPGGSLRLSCAASGFNIHSTDIHWVRQAPGKGLEWVAYITPAGGATFYADSVKGRFTISADTSKNTAYLQMNSLRAEDTAVYYCARYPYWFAGYMDYWGQGTLVTVSS
VL: not shown
notes: HC variant paired with trastuzumab LC, cell-free expressed, HIS- and FLAG-tagged; also called Antibody 49
B6: SRP1848-G10 (antibody, V domains shown)
VH: EVQLVESGGGLVQPGSSLRLSCAASGFNIRSTDIHWVRQAPGKGLEWVAYITPAGGATYYADSVKGRFTISADTSKNTAYLQMNSLRAEDTAVYYCARYPYWFAGYIDYWGQGTLVTVSS
VL: not shown
notes: HC variant paired with trastuzumab LC, cell-free expressed, HIS- and FLAG-tagged; also called Antibody 53
B7: SRP1848-G09 (antibody, V domains shown)
VH: EVQLVESGGGLVQPGGSLRLSCAASGFNIRGTDIHWVRQAPGKGLEWVAYITPAGGATFYADSVKGRFTISADTSKNTAYLQMNSLRAEDTAVYYCARHEYWFSGYMDYWGQGTLVTVSS
VL: not shown
notes: HC variant paired with trastuzumab LC, cell-free expressed, HIS- and FLAG-tagged; also called Antibody 52
B8: SRP1848-G06 (antibody, V domains shown)
VH: EVQLVESGGGLVQPGGSLRLSCAASGFNIRSTDIHWVRQAPGKGLEWVAYITPAGGATYYADNVKGRFTISADTSKNTAYLQMNSLRAEDTAVYYCARQPYWFAGYMDYWGQGTLVTVSS
VL: not shown
notes: HC variant paired with trastuzumab LC, cell-free expressed, HIS- and FLAG-tagged; also called Antibody 50
B9: SRP1848-G07 (antibody, V domains shown)
VH: EVQLVESGGGLVQPGGSLRLSCAASGFNIHSTDIHWVRQAPGKGLEWVAYITPAGGATWYADSVKGRFTISADTSKNTAYLQMNSLRAEDTAVYYCARYPFWFAGYMDYWGQGTLVTVSS
VL: not shown
notes: HC variant paired with trastuzumab LC, cell-free expressed, HIS- and FLAG-tagged; also called Antibody 51
B10: SRP1848-G11 (antibody, V domains shown)
VH: EVQLVESGGGLVQPGGSLRLSCAASGFNISSTDIHWVRQAPGKGLEWVAYITPAGGATWYADSVKGRFTISADTSKNTAYLQMNSLRAEDTAVYYCARYPYWFSGYMDYWGQGTLVTVSS
VL: not shown
notes: HC variant paired with trastuzumab LC, cell-free expressed, HIS- and FLAG-tagged; also called Antibody 54
B11: SRP2060-E10 (antibody, V domains shown)
VH: EVQLLESGGGLVQPGGSLRLSCAFSGFSLSTFGMGVGWVRQAPGKGLEWVSHIWWDDDKYYHPALKGRFTISKDNSKNTVYLQMNSLRAEDTAVYYCGRNHFPHYYGSSHWYFNVWGQGTTVTVSS
VL: EIVMTQSPATLSLSPGERATLSCKASQDINSYLSWYQQKPGQAPRLLIYRANRLVDGIPARFSGSGSGTDYTLTISSLEPEDFAVYYCLQYDEFPYTFGGGTKVEIK
notes: also called Antibody 56
B12: SRP1848-A02 (antibody, V domains shown)
VH: EVQLVESGGGLVQPGGSLRLSCAASGFNISGFRIHWVRQAPGKGLEWVAGIYPESGATYYADSVKGRFTISADTSKNTAYLQMNSLRAEDTAVYYCARHLYVWDWVLDHVLDYWGQGTLVTVSS
VL: not shown
notes: HC variant paired with trastuzumab LC, cell-free expressed, HIS- and FLAG-tagged; also called Antibody 2
B13: SRP1848-E06 (antibody, V domains shown)
VH: EVQLVESGGGLVQPSGSLRLSCAASGFNINRYYIHWVRQAPGKGLEWVGGITPNDGYTDYADSVEGRFTTSADTSKNTAYLQMNSLRAEDTAVYYCARGTWSWPSGHSYYLDYWGQGTLVTVSS
VL: not shown
notes: HC variant paired with trastuzumab LC, cell-free expressed, HIS- and FLAG-tagged; also called Antibody 35

What was measured:
[1] = target: T1, cynomolgus monkey folate receptor alpha (cynomolgus monkey, UniProt P15328 25-234 (human entry)); assay: FACS, CHO-cFOLR1 cells
T1 construct: Expressed on the surface of stably transfected CHO cells; also called cyno FolR1; CHO-cyno FolR1

[2] = target: T2, murine folate receptor alpha (mouse, UniProt P35846 25-232); assay: FACS, CHO-mFOLR1 cells;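 note: flow cytometry binding of serially diluted test antibodies to transfected CHO cells on ice, mean fluorescence intensity, parental CHO cells give background, Kd from one-site specific binding fit with Hill slope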
T2 construct: Expressed on the surface of stably transfected CHO cells; also called mouse FolR1; CHO-mouse FolR1
Protocol: CHO cells were transfected to stably express human (CHO-hFOLR1), cynomolgus (CHO-cFOLR1), or mouse (CHO-mFOLR1) target molecule FOLR1 on the cell surface. Parental CHO cells were used as a negative control to determine background binding levels. Parental CHO and stably transfected CHO-hFOLR1, CHO-cFOLR1, and CHO-mFOLR1 cells were cultured in Ham's F-12: high glucose DMEM (50:50) (Corning, Cellgro-Mediatech) supplemented with 10% heat-inactivated fetal bovine serum (Corning, Cellgro-Mediatech), 1% Penicillin/Streptomycin (Corning, Cellgro-Mediatech) and 2 mmol/L-glutamax (Life Technology).
A mixture of fluoresecent-labeled parental CHO cells and unlabeled CHO-hFOLRlcells were prepared as follows. Parental CHO cells were washed twice in PBS and incubated in PBS containing with 1 nM CellTrace™ Oregon Green488® (Life Technologies) at 37° C. for 30 minutes. Labeled parental CHO cells were then washed 2× with Ham's F-12 media and 2× with FACS buffer (PBS with 1% bovine serum albumin). Unlabeled CHO-hFOLR1 cells were similarly washed and prepared. Labeled parental CHO and unlabeled CHO-hFOLR1 cells were combined at 1:1 ratio and seeded at 50 μL per well (200,000 cells per well) in 96 well polypropylene plates. Cells were mixed with 50 μL of test antibodies (i.e., anti-FOLR1 variants) serially diluted in FACS buffer and incubated on ice for 60 mins. […] Data were analyzed using FlowJo® software (FlowJo, LLC; Ashland, OR) to determine mean fluorescence intensities. Binding constants were calculated using the statistical software, GraphPad Prism (GraphPad Software; La Jolla, CA) using the nonlinear regression equation, one site-specific binding with Hill slope. Secondary antibody alone was used as a control, in addition to measuring non-specific antibody binding to CHO parental cells.

[3] = target: T3, human folate receptor alpha (hFOLR1) (human, UniProt P15328 25-234); assay: FACS, CHO-hFOLR1 cells;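 note: flow cytometry of serially diluted antibodies binding CHO cells stably expressing the receptor, 60 min on ice, mixed with dye-tagged parental CHO as background control, one-site specific fit with Hill slope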
T3 construct: endogenous on FOLR1-positive KB and Igrov1 cells (cell killing); also called human FolR1; FolRα

[4] = target: T3, human folate receptor alpha (hFOLR1); assay: cell-based or functional assay
human FOLR1-HIS = target: T4, human FOLR1-HIS (human, UniProt P15328 25-233); assay: SPR (Biacore), antibody captured on anti-Fc, human FOLR1-HIS analyte, 25 C
T4 construct: Analyte of the Biacore assay; also called FolRα-ECD; extracellular domain of FOLR1; not shown: HIS tag
T4 sequence (P15328 25-233 limits assumed): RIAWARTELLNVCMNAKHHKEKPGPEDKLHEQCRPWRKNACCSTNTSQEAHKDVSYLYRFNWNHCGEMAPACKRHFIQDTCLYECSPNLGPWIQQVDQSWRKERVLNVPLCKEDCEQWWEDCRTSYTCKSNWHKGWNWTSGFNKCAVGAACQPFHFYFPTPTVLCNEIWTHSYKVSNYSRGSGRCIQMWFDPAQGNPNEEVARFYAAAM

T1 sequence (P15328 other isoform, or with tags, fused parts or gaps limits assumed): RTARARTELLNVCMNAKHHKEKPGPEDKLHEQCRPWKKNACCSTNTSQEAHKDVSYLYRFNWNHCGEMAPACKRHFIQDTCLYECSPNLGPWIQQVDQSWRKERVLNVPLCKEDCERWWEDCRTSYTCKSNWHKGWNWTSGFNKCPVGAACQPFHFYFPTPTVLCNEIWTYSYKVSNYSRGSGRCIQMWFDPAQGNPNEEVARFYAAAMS
T2 sequence (P35846 25-232 limits assumed): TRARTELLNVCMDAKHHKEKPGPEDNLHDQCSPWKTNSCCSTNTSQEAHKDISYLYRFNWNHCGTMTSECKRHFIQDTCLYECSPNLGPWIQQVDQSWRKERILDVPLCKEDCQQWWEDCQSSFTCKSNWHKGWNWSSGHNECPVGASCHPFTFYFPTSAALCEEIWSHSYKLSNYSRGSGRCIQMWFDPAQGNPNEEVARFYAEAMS
T3 sequence (P15328 25-234 limits assumed): as the sequence (P15328 other isoform, or with tags, fused parts or gaps limits assumed) above, with T2I, R4W, K37R, R117Q, P146A, Y171H counted along it

Binder | Bmax (MFI) [1] [MFI] | Kd [1] [nM] | Bmax (MFI) [2] [MFI] | Kd [2] [nM] | Bmax (MFI) [3] [MFI] | Kd [3] [nM] | Igrov, 2° Antibody Cell Killing, Nb-SC239: EC50 [4] [nM] | Igrov, 2° Antibody Cell Killing, Nb-SC239: Span [4] [%] | KB, 2° Antibody Cell Killing, Nb-239: Span [4] [%] | KB, 2° Antibody Cell Killing, Nb-239: EC50 [4] [nM] | Kd (human FOLR1-HIS) [nM] | koff (human FOLR1-HIS) [s⁻¹] | kon (human FOLR1-HIS) [M⁻¹ s⁻¹]
B1 | 14100 | 0.58 | 3170 | 9.5 | 26000 | 1.9 | 0.038 | 76 | 98 | – | – | – | –
B2 | 19200 | 0.44 | 2220 | 2.4 | 26400 | 0.82 | 0.021 | 76 | 91 | 0.064 | – | – | –
B3 | 17400 | 0.43 | 5940 | 0.5 | 26700 | 0.76 | 0.027 | 73 | 94 | 0.057 | – | – | –
B4 | 17200 | 0.28 | 3950 | 33.8 | 27000 | 0.59 | 0.016 | 67 | 96 | 0.049 | – | – | –
B5 | 12500 | 0.25 | 2000 | 2.5 | 25200 | 0.76 | 0.016 | 75 | 92 | 0.051 | – | – | –
B6 | 14200 | 0.24 | 2890 | 4.3 | 25300 | 0.49 | 0.019 | 79 | 97 | 0.046 | – | – | –
B7 | 17700 | 0.35 | 2180 | 6.4 | 25100 | 0.59 | 0.036 | 83 | 97 | 0.073 | – | – | –
B8 | 12800 | 0.31 | 1860 | 11.1 | 25800 | 0.63 | 0.026 | 81 | 96 | 0.057 | – | – | –
B9 | 13700 | 0.35 | 1980 | 2.9 | 24900 | 0.78 | 0.038 | 78 | 94 | 0.058 | – | – | –
B10 | 11800 | 0.26 | 2740 | 7.6 | 27200 | 0.68 | 0.023 | 84 | 97 | 0.04 | – | – | –
B11 | – | – | – | – | – | – | – | – | – | – | 2.06 | 0.0012 | 582000
B12 | 18500 | 0.5 | 18600 | 2.4 | 24700 | 0.64 | 0.039 | 71 | 94 | 0.028 | – | – | –
B13 | 15800 | 0.26 | 2350 | 1.2 | 25600 | 0.48 | 0.025 | 74 | 93 | – | – | – | –
